In patent US20100047245A1 (AbbVie / Abbott, published 2010):
Positions count from the first letter of the chain named. One block for each binder: values may come before it.

Target: recombinant purified cyno IL-12 p70 (cynomolgus monkey)
Assay: cell-based or functional assay

recombinant purified cyno IL-12 p70 (cynomolgus monkey), sequence (P48095 23-328, chain 1 of 2): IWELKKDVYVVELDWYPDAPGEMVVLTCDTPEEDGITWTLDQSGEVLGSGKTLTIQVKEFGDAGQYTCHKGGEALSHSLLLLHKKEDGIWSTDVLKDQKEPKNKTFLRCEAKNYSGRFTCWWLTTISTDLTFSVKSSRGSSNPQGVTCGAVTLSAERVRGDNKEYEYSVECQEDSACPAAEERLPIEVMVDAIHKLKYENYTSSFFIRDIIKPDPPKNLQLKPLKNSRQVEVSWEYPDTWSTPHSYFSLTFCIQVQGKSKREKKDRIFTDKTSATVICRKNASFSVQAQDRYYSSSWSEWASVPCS
recombinant purified cyno IL-12 p70 (cynomolgus monkey), sequence (P48091 23-219, chain 2 of 2, further chain): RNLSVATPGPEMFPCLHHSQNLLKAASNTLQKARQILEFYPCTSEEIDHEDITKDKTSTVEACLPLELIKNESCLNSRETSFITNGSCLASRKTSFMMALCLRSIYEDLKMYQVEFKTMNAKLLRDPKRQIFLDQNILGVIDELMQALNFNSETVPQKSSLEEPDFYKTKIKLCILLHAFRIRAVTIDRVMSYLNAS

Average IC50 (nM) Cyno IL-12; PHA blast IFN-gamma induction assay: 0.15 nM
B1: 8E1-Chim (antibody, human IgG1, V domains shown)
VH: EVKLVESGGGLVQPGGSRKLSCAASGFTFSDYGMVWVRQAPGKGLEWVASISSGSSNIYYADTVKGRFTISRDDPNNTLFLQMRSLRSEDTAMYYCARNPYWGQGTTLTVSS
VL: DIVMTQSQKFMSTSVGDRVSVTCKASQNVGTNVAWYQQKPGQSPKGLIYSASHRYSGVPDRFAGSGSGTDFTLTISNVQSEDLAEYFCQQYNSYPLTFGGGTKLELKR

Average IC50 (nM) Cyno IL-12; PHA blast IFN-gamma induction assay: 0.02 nM
B4: 1A6-Chim (antibody, human IgG1, V domains shown)
VH: QVTLKESGPGILKPSQTLSLTCSFSGFSLSTSGMGVSWIRQPSGKGLEWLAHIWWDGDNYYNPSLKSQLTISKDTSRNQVFLRIATVDTADTATYYCARRTRVNYAMDYWGQGTSVTVSS
VL: SVVMTQTPKFLLVSAGDRVTITCKASQSVSNDVAWFQQKPGQSPKLLIYYASNRYTGVPDRFTGSGYGTDFTFTISTVQAEDLAVYFCQQDYNSPWTFGGGTKLEIKR

The remaining lines, values behind:

B2: 1D4-Chim (antibody, human IgG1, V domains shown)
VH: QVTLKESGPGILQPSQTLSLTCSFSGFSLRKSVMGVSWIRQPSGKGLEWLAHIYWDDDKYYNPSLKSRLTISKDPSRNQVFLKITSVDTADAATYYCTRRGIRSAMDYWGQGTSVTVSS
VL: B4 VL with F36Y, T74I, Q79R
Average IC50 (nM) Cyno IL-12; PHA blast IFN-gamma induction assay: 0.07 nM

B3: 3G7-Chim (antibody, human IgG1, V domains shown)
VH: QVQLQQSGAELMKPGASVKISCKATGYTFNDYWIEWVKQRPGHGLEWIGGFSHGSGSTNYNEKFKGKATFTADSSSNTAYMQLSSLTSEDSAVYYCARRRFRGMDYWGQGTSVTVSS
VL: B4 VL with V2I, F36Y, S76T, N93S, T97S
Average IC50 (nM) Cyno IL-12; PHA blast IFN-gamma induction assay: 0.32 nM
